Measured values published in patent US20070021593A1.
Residue numbers refer to the chain shown, from its start. In names and notes the source's numbering stands. Several values for one entry are separate records, joined by “and”; a condition that tells them apart may be missing. Identical values can stand only once.

Key:
[1] = molecular target: CXCL8 receptors on bovine peripheral blood neutrophils; assay: biotCXCL8 (1000 ng/ml) on medium-treated bovine neutrophils; alkaline phosphatase-streptavidin and ABTS
[2] = molecular target: CXCL8 receptors on bovine peripheral blood neutrophils; assay: biotCXCL8 binding inhibition on bovine neutrophils; 10 ng/ml unlabeled CXCL8 2 h at 4 C, wash, then 1 ug/ml biotCXCL8; ELISA read-out
[3] = molecular target: CXCL8 receptors on bovine peripheral blood neutrophils; assay: competition with 20 pM 125I-CXCL8 on 10^6 bovine neutrophils, 45 min on ice
[4] = molecular target: CXCL8 receptors on bovine peripheral blood neutrophils; assay: preliminary radioligand binding on bovine neutrophils
[5] = molecular target: CXCL8 receptors on bovine peripheral blood neutrophils; assay: biotCXCL8 binding inhibition on bovine neutrophils; 10 ng/ml analogue 2 h at 4 C, wash, then 1 ug/ml biotCXCL8; ELISA read-out
[6] = molecular target: CXCL8 receptors on bovine peripheral blood neutrophils; assay: competition with 20 pM 125I-CXCL8 on bovine neutrophils; reference wildtype CXCL8
[7] = molecular target: CXCL8 receptors on bovine peripheral blood neutrophils; assay: cell-based or functional assay

Work on “biotinylated CXCL8 (from UniProt P79255 23-101) (ligand)” yielded an OD405 [1] of 0.5 to 0.6 OD405.

Molecule “CXCL8 (wild type, unlabeled) (from UniProt P79255 23-101) (ligand)” has a percent of biotCXCL8 binding inhibited [2] of 30% and an IC50 [3] of 0.12 nM.

For “125I-CXCL8 (from UniProt P79255 23-101) (ligand)”, the concentration that just saturated the high affinity receptors [4] was 20 pM.

B1: bovine CXCL8(3-74)K11R/G31P (ligand)
chain: TELRCQCIRTHSTPFHPKFIKELRVIESPPHCENSEIIVKLTNGNEVCLNPKEKWVQKVVQVFVKRAEKQDP
In the case of B1, the percent of subsequent biotCXCL8 binding blocked [5] is reported as 95%, the fold more effective than wildtype CXCL8 in inhibiting 125I-CXCL8 binding [6] is reported as 100 fold and the IC50 [3] is reported as 0.004 nM. The IC50, inhibition of bovine neutrophil chemotaxis to 1 ug/ml (129 nM) CXCL8 [7] was 0.11 nM, the concentration for complete blocking of bovine neutrophil chemotaxis to 1 ug/ml CXCL8 [7] was 10 nM and the concentration for complete inhibition of bovine neutrophil chemotaxis to human CXCL5, CXCL1 or CXCL8 [7] was 3 nM and 20 nM. For the same molecule, the concentration reducing by 50% the bovine neutrophil chemotactic response to 10 ng/ml human CXCL8 [7] was 0.04 nM, the concentration reducing to 50% the bovine neutrophil chemotactic response to 1 ng/ml human CXCL1 [7] was 0.26 nM and the concentration reducing to 50% the bovine neutrophil chemotactic response to 1 ng/ml human CXCL5 [7] was 0.06 nM. It also gave a reduction of the chemotactic response of bovine neutrophils to 1 ug/ml (129 nM) CXCL8 by 12.9 pM analogue [7] of 33%.

B2: bovine CXCL8(3-74)K11R/P32G (ligand)
chain: B1 chain with P29G, P30G
Work on B2 yielded a percent of CXCL8 binding blocked [5] of 48%.
